Reference: the Immune Epitope Database (IEDB)

Legend:
Experiment in all cases: IEDB peptide-MHC binding, purified MHC/competitive/radioactivity; filed as Kd, often an IC50 or EC50 that approximates it; ≥ and ≤ were set here for values at or beyond the usual limits of such assays
HLA-A*31:01 = target: HLA-A*31:01
HLA-A*11:01 = target: HLA-A*11:01
HLA-A*68:01 = target: HLA-A*68:01
HLA-A*03:01 = target: HLA-A*03:01
HLA-A*33:01 = target: HLA-A*33:01
HLA-A*02:03 = target: HLA-A*02:03
HLA-A*02:06 = target: HLA-A*02:06
[1] = source organism: Vaccinia virus WR
[2] = source organism: Dengue virus 4 Philippines/H241/1956
[3] = source organism: Vaccinia virus Copenhagen
[4] = source organism: Dengue virus 2 Peru/IQT2913/1996
[5] = source organism: Dengue virus 1 Nauru/West Pac/1974
[6] = source organism: Dengue virus 1 Brazil/97-11/1997
[7] = source organism: Dengue virus 3 Martinique/1243/1999
[8] = source organism: SARS coronavirus Tor2
[9] = source organism: Dengue virus 2 16681-PDK53
[10] = source organism: Dengue virus 2 Jamaica/1409/1983
[11] = source organism: Lassa virus Josiah
[12] = source organism: Mammarenavirus guanaritoense
[13] = source organism: Lymphocytic choriomeningitis virus (strain Armstrong)

In the case of AQYKCVTIKY, the Kd (HLA-A*31:01; [1]) is reported as 2140 nM, the Kd (HLA-A*11:01; [1]) is reported as 80.1 nM and the Kd (HLA-A*68:01; [1]) is reported as 967 nM. For the same sequence, the Kd (HLA-A*03:01; [1]) was 220 nM and the Kd (HLA-A*33:01; [1]) was at least 21900 nM.

In the case of IMQRGLFGK, the Kd (HLA-A*11:01; [2]) is reported as 327 nM and the Kd (HLA-A*03:01; [2]) is reported as 85.6 nM.

In the case of TLCAIILGGL, the Kd (HLA-A*02:03; [2]) is reported as 3.7 nM.

KLKHRDGFTK was tested, and the Kd (HLA-A*31:01; [3]) was 726 nM, the Kd (HLA-A*11:01; [3]) was 131 nM and the Kd (HLA-A*68:01; [3]) was at least 38700 nM. It also gave a Kd (HLA-A*03:01; [3]) of 37.3 nM and a Kd (HLA-A*33:01; [3]) of at least 29100 nM.

Work on ATTFITPMLR yielded a Kd (HLA-A*31:01; [4]) of 48.6 nM, a Kd (HLA-A*11:01; [4]) of 14 nM and a Kd (HLA-A*68:01; [4]) of 15.3 nM.

With ATTIITPMMR the Kd (HLA-A*31:01; [5]) was at least 70000 nM, the Kd (HLA-A*11:01; [5]) was 162 nM and the Kd (HLA-A*68:01; [5]) was 386 nM.

For MSAAIKDSK, the Kd (HLA-A*11:01; [6]) was 1120 nM and the Kd (HLA-A*68:01; [6]) was 76.6 nM.

Sequence IMKDGRKLV has a Kd (HLA-A*02:03; [7]) of 558 nM.

ETTKHAVSR showed a Kd (HLA-A*68:01; [6]) of 10.3 nM and a Kd (HLA-A*33:01; [6]) of 10.6 nM.

Work on SISSVLTILY yielded a Kd (HLA-A*31:01; [1]) of 9230 nM, a Kd (HLA-A*11:01; [1]) of 107 nM and a Kd (HLA-A*68:01; [1]) of 907 nM. The Kd (HLA-A*03:01; [1]) was 206 nM and the Kd (HLA-A*33:01; [1]) was 2240 nM.

For ATSTGNYNYK, the Kd (HLA-A*31:01; [8]) was 69.5 nM, the Kd (HLA-A*11:01; [8]) was 1.38 nM and the Kd (HLA-A*68:01; [8]) was 9.61 nM. The Kd (HLA-A*03:01; [8]) was 4.34 nM and the Kd (HLA-A*33:01; [8]) was at least 26300 nM.

In the case of QTIASKKDK, the Kd (HLA-A*31:01; [1]) is reported as 589 nM, the Kd (HLA-A*11:01; [1]) is reported as 766 nM and the Kd (HLA-A*68:01; [1]) is reported as 265 nM. The Kd (HLA-A*03:01; [1]) was 317 nM and the Kd (HLA-A*33:01; [1]) was at least 77700 nM.

In the case of FTTNIWLKLK, the Kd (HLA-A*68:01; [9]) is reported as 12.5 nM.

LQMEDKAWL showed a Kd (HLA-A*02:06; [10]) of 32.2 nM.

AFQHQNSKK showed a Kd (HLA-A*31:01; [8]) of 672 nM, a Kd (HLA-A*11:01; [8]) of 3000 nM and a Kd (HLA-A*68:01; [8]) of 3920 nM. For the same sequence, the Kd (HLA-A*03:01; [8]) was 13900 nM and the Kd (HLA-A*33:01; [8]) was at least 22600 nM.

Sequence LLKTALLIV has a Kd (HLA-A*02:03; [7]) of 10.6 nM.

Sequence YFSKQTQTY has a Kd (HLA-A*31:01; [1]) of at least 25000 nM, a Kd (HLA-A*11:01; [1]) of at least 27500 nM and a Kd (HLA-A*68:01; [1]) of 1730 nM. For the same sequence, the Kd (HLA-A*03:01; [1]) was 17300 nM and the Kd (HLA-A*33:01; [1]) was at least 30400 nM.

SLVMLLVHYA showed a Kd (HLA-A*02:06; [2]) of 423 nM and a Kd (HLA-A*02:03; [2]) of 640 nM.

In the case of MLRLFDFNK, the Kd (HLA-A*31:01; [11]) is reported as 129 nM, the Kd (HLA-A*11:01; [11]) is reported as 50 nM and the Kd (HLA-A*68:01; [11]) is reported as 571 nM. It also gave a Kd (HLA-A*03:01; [11]) of 84.6 nM and a Kd (HLA-A*33:01; [11]) of 527 nM.

Sequence ALKYLPIDK has a Kd (HLA-A*31:01; [8]) of 6570 nM, a Kd (HLA-A*11:01; [8]) of 878 nM and a Kd (HLA-A*68:01; [8]) of 2370 nM. It also gave a Kd (HLA-A*03:01; [8]) of 299 nM and a Kd (HLA-A*33:01; [8]) of at least 48500 nM.

Sequence STSPTRTWK has a Kd (HLA-A*31:01; [3]) of 36.2 nM, a Kd (HLA-A*11:01; [3]) of 0.803 nM and a Kd (HLA-A*68:01; [3]) of 5.87 nM. It also gave a Kd (HLA-A*03:01; [3]) of 6.72 nM and a Kd (HLA-A*33:01; [3]) of 6520 nM.

For TMWHVTRGSV, the Kd (HLA-A*02:03; [2]) was 24.3 nM.

With LALSLTFIR the Kd (HLA-A*31:01; [2]) was 97.1 nM and the Kd (HLA-A*33:01; [2]) was 6.39 nM.

Sequence NTTYDFLARK has a Kd (HLA-A*31:01; [1]) of 5550 nM, a Kd (HLA-A*11:01; [1]) of 31.8 nM and a Kd (HLA-A*68:01; [1]) of 9.58 nM. The Kd (HLA-A*03:01; [1]) was 691 nM and the Kd (HLA-A*33:01; [1]) was 4510 nM.

IFPANINDK was tested, and the Kd (HLA-A*31:01; [1]) was 3580 nM, the Kd (HLA-A*11:01; [1]) was 1090 nM and the Kd (HLA-A*68:01; [1]) was 1200 nM. For the same sequence, the Kd (HLA-A*03:01; [1]) was 2240 nM and the Kd (HLA-A*33:01; [1]) was 12500 nM.

For LLNRFTMAHR, the Kd (HLA-A*31:01; [6]) was at least 48500 nM.

DVPSPAAAQK gave a Kd (HLA-A*68:01; [2]) of 192 nM.

Sequence NMTSRMLLNR has a Kd (HLA-A*31:01; [6]) of 12000 nM, a Kd (HLA-A*68:01; [6]) of 470 nM and a Kd (HLA-A*33:01; [6]) of 73.7 nM.

In the case of ILHVDNHIGI, the Kd (HLA-A*02:03; source organism: Homo sapiens) is reported as 11.1 nM.

Work on ELGKKKTPR yielded a Kd (HLA-A*33:01; [10]) of 116 nM.

Work on NIHTAITQVR yielded a Kd (HLA-A*68:01; [2]) of 167 nM.

In the case of YLWEVKKQR, the Kd (HLA-A*33:01; [10]) is reported as 65.4 nM.

Sequence KNGAIKVLR has a Kd (HLA-A*31:01; [6]) of at least 51000 nM.

Work on KQLGQIMLL yielded a Kd (HLA-A*02:06; [6]) of 5.76 nM.

LQMENKAWL gave a Kd (HLA-A*02:06; [9]) of 22.8 nM.

With GLAMGIMMLK the Kd (HLA-A*11:01; [6]) was 156 nM and the Kd (HLA-A*03:01; [6]) was 12.1 nM.

In the case of SLAAIANQA, the Kd (HLA-A*02:03; [7]) is reported as 55 nM.

LLILCTSQI was tested, and the Kd (HLA-A*02:03; [6]) was 8.71 nM.

For VIYDSKFEK, the Kd (HLA-A*11:01; [7]) was 41.6 nM and the Kd (HLA-A*03:01; [7]) was 64.3 nM.

Sequence ATLTEGVYR has a Kd (HLA-A*31:01; [2]) of 7.26 nM.

QMWQLMYFHR showed a Kd (HLA-A*31:01; [6]) of at least 39900 nM and a Kd (HLA-A*33:01; [6]) of 0.396 nM.

Work on AVSTANIFR yielded a Kd (HLA-A*11:01; [2]) of 90.7 nM and a Kd (HLA-A*68:01; [2]) of 29.6 nM.

In the case of IMAYVNQAHH, the Kd (HLA-A*31:01; [12]) is reported as 1120 nM, the Kd (HLA-A*68:01; [12]) is reported as 97 nM and the Kd (HLA-A*03:01; [12]) is reported as 4010 nM. It also gave a Kd (HLA-A*33:01; [12]) of 3920 nM.

TLWEGSPGK showed a Kd (HLA-A*03:01; [6]) of 328 nM.

VSQLAKRFSK gave a Kd (HLA-A*11:01; [5]) of 126 nM.

With TLMSIVSSLH the Kd (HLA-A*33:01; [13]) was at least 70000 nM.

Work on LMYFHRRDLR yielded a Kd (HLA-A*31:01; [10]) of 0.556 nM, a Kd (HLA-A*68:01; [10]) of 207 nM and a Kd (HLA-A*03:01; [10]) of 142 nM. For the same sequence, the Kd (HLA-A*33:01; [10]) was 17.3 nM.

For LTALNDMGK, the Kd (HLA-A*11:01; [10]) was 1450 nM and the Kd (HLA-A*68:01; [10]) was 528 nM.

Sequence QMWSLMYFHR has a Kd (HLA-A*31:01; [7]) of 1.41 nM and a Kd (HLA-A*33:01; [7]) of 4.14 nM.

LTMFLITENK was tested, and the Kd (HLA-A*11:01; [5]) was 30.4 nM, the Kd (HLA-A*68:01; [5]) was 23 nM and the Kd (HLA-A*03:01; [5]) was 4.57 nM.

Work on ILKEPVHGV yielded a Kd (HLA-A*02:03; source organism: Human immunodeficiency virus type 1 BH10) of 6.3 nM.

GICSCGAFK was tested, and the Kd (HLA-A*11:01; [13]) was 54.6 nM.

VQTAPGTFK was tested, and the Kd (HLA-A*11:01; source organism: Dengue virus 1 Singapore/S275/1990) was 129 nM.
